The record followed here is US11078465B2, “Alcohol dehydrogenase mutant and application thereof in synthesis of diaryl chiral alcohols” (Jiangnan University, priority 2018, dated 2021).

Type in all cases: biochemical
For series [1], the system named is O=C(c1ccc(Cl)cc1)c1ccccn1. The series can be described thus: Kinetic analysis of alcohol dehydrogenase (CPMK reduction, NADPH absorption at 340 nm). As to conditions: other: WT, substrate CPMK, pH 7.0, 30° C. Here is the method: (§1) Adopting a total reaction system of 200 μL, including: 1.0 mM NADPH, 1.0 mM substrate CPMK and sodium phosphate buffer (PBS, 100 mM, pH 7.0), fully and evenly mixing, maintaining at 30° C. for 2 min, adding an appropriate amount of enzyme solution, and detecting the change in light absorption at 340 nm.
(§2) The enzyme activity was calculated by the following formula: Enzyme activity (U)=EW×V×10^3/(6220×I);
(§3) in the formula, EW is the change in absorbance at 340 nm in 1 min; V is the volume of a reaction solution in mL; 6220 is the molar extinction coefficient of NADPH in L/mol·cm); and 1 is the optical path distance in cm. One activity unit (U) corresponds to the amount of enzyme required to catalyze the oxidation of 1 μmol NADPH per minute under the above conditions.
(§4) A column used for purification was a nickel affinity column HisTrap FF crude, and purification was achieved through affinity chromatography using a histidine tag on recombinant protein. The nickel column was equilibrated with a solution A first, a crude enzyme solution was loaded, a penetrating peak was further eluted off using the solution A, and after equilibrium, a solution B (20 mM sodium phosphate, 500 mM NaCl, and 1000 mM imidazole, pH 7.4) was used for gradient elution to elute off the recombinant protein bound to the nickel column, so as to obtain the recombinant alcohol dehydrogenase mutant. The purified protein was subjected to activity measurement (CPMK as substrate, and NADPH as coenzyme) and SDS-PAGE analysis. […] The purified alcohol dehydrogenase protein was then replaced into a Tris-HCl (100 mM, pH 7.0) buffer using a Hi Trap Desalting column (GE Healthcare).
(§5) The activity of KpADH at different substrate concentrations and coenzyme concentrations was determined, and a double reciprocal curve was made based on the reciprocal of activity and substrate concentration to calculate kinetic parameters.

In series [2] the target is alcohol dehydrogenase KpADH (SEQ ID No. 2) mutant F320W/S237A (Vanderwaltozyma polyspora, UniProt A7TM80, form not given/S237A). Put plainly: Kinetic analysis of alcohol dehydrogenase mutant (CPMK reduction, NADPH absorption at 340 nm). As to conditions: substrate CPMK, pH 7.0, 30° C. Here is the method: as §1, §2, §3, §4, §5
(§6) Two mutants of S237A and S237C valuable for modification of asymmetric synthesis R- and S- are obtained by random mutation screening, and the two sites are used as templates for random mutation. […] It can be known by combining the data in Tables 2 and 3 that the 214 site of alcohol dehydrogenase is a site that is important for determining selectivity improvement and inversion.

The target in series [3] is alcohol dehydrogenase KpADH (SEQ ID No. 2) mutant F320V/S237A (Vanderwaltozyma polyspora, UniProt A7TM80, form not given/S237A). The series is described as above. The following applies: substrate CPMK, pH 7.0, 30° C. As to the method:
as §1, §2, §3, §4, §5, §6

The target in series [4] is alcohol dehydrogenase KpADH, wild type (WT), SEQ ID No. 2 (Vanderwaltozyma polyspora, UniProt A7TM80). The series can be described thus: Kinetic analysis of alcohol dehydrogenase (CPMK reduction, NADPH absorption at 340 nm). Also on record: unit not given here. As to the method:
as §1, §2, §3, §4, §5

In series [5] the test system is O=C(c1ccc(Cl)cc1)c1ccccn1. Put plainly: Kinetic analysis of alcohol dehydrogenase mutant (CPMK reduction, NADPH absorption at 340 nm). As to conditions: other: E214G/S237C, substrate CPMK, pH 7.0, 30° C.
Series [6] has as its system O=C(c1ccc(Cl)cc1)c1ccccn1. The description is as above. As to conditions: other: S237C, substrate CPMK, pH 7.0, 30° C. Here is the method: as §1, §2, §3, §4, §5, §6

In general, Vmax refers to the top rate of the reaction or transport when substrate is in excess. The term kcat denotes the number of substrate molecules converted per active site and unit of time at saturation. The term kcat/Km denotes the turnover number divided by the Michaelis constant. Regarding “alcohol dehydrogenase KpADH, wild type (WT), SEQ ID No. 2 (Vanderwaltozyma polyspora DSM 70294)”, in series [1], the Km came out at 760 ± 190 µM, the Vmax came out at 21.3 µM/min/mg, the kcat amounted to 14.2 ± 1.16 s⁻¹ and the catalytic efficiency (kcat/Km) stood at 18700 ± 620 M⁻¹ s⁻¹.

For `O=C(c1ccc(Cl)cc1)c1ccccn1` [CPMK, (4-chlorophenyl)-(pyridin-2-yl)-methanone], the Kcat in series [2] turned out to be 11.07 ± 0.25 s⁻¹; in series [3], 5.9 ± 0.09 s⁻¹. Moreover, the Km in series [2] is 1660 ± 20 µM; in series [3], 1150 ± 50 µM; in series [4], 0.76. The Vmax in series [2] turned out to be 16.6 ± 0.37 µM/min/mg; in series [3] it was 8.9 ± 0.78 µM/min/mg.

Regarding “alcohol dehydrogenase KpADH (SEQ ID No. 2) mutant M12, E214G/S237C (Vanderwaltozyma polyspora DSM 70294; E214G/S237C)”, in series [5], the Km came to 310 ± 20 µM, the Vmax turned out to be 9.54 µM/min/mg, the kcat is 6.3 ± 0.11 s⁻¹ and the catalytic efficiency (kcat/Km) was 22100 ± 1370 M⁻¹ s⁻¹.

Regarding “alcohol dehydrogenase KpADH (SEQ ID No. 2) mutant S237C (Vanderwaltozyma polyspora DSM 70294; S237C)”, in series [6], the Km stood at 1010 ± 100 µM, the Vmax was 20.9 µM/min/mg, the turnover number (kcat) is 13.9 ± 0.99 s⁻¹ and the kcat/Km is 13800 ± 250 M⁻¹ s⁻¹.
